Values of other authors, collected in patent US10765706B2, “Method of stem cell delivery into the brain during chronic disease using blood brain barrier permeabilizers” (University of South Florida, priority 2015, dated 2020).

System: stroke patients
Conditions: acute stroke patients

B1: t-PA: thrombolytic agent, tissue plasminogen activator (protein, UniProt P00750 36-562, looked up)
Tissue-type plasminogen …: SYQVICRDEKTQMIYQQHQSWLRPVLRSNRVEYCWCNSGRAQCHSVPVKSCSEPRCFNGGTCQQALYFSDFVCQCPEGFAGKCCEIDTRATCYEDQGISYRGTWSTAESGAECTNWNSSALAQKPYSGRRPDAIRLGLGNHNYCRNPDRDSKPWCYVFKAGKYSSEFCSTPACSEGNSDCYFGNGSAYRGTHSLTESGASCLPWNSMILIGKVYTAQNPSAQALGLGKHNYCRNPDGDAKPWCHVLKNRRLTWEYCDVPSCSTCGLRQYSQPQFRIKGGLFADIASHPWQAAIFAKHRRSPGERFLCGGILISSCWILSAAHCFQERFPPHHLTVILGRTYRVVPGEEEQKFEVEKYIVHKEFDDDTYDNDIALLQLKSDSSRCAQESSVVRTVCLPPADLQLPDWTECELSGYGKHEALSPFYSERLKEAHVRLYPSSRCTSQHLLNRTVTDNMLCAGDTRSGGPQANLHDACQGDSGGPLVCLNDGRMTLVGIISWGLGCGQKDVPGVYTKVTNYLDWIRDNMRP
fraction of patients receiving the therapy with enhanced recovery: ⅓
